From patent US20230192818A1 (TWIST BIOSCIENCE, published 2023)
Read-outs that look alike come from different tables or passages of the source.

Tests used:
SARS-CoV-2 S1 (Acro) [1] = target: T1, SARS-CoV-2 S1 (Acro) (SARS-CoV-2, UniProt P0DTC2 16-685); assay: SPR (Carterra)
T1 construct: also called Acro S1

SARS-CoV-2 S1 (Acro) [2] = target: T1, SARS-CoV-2 S1 (Acro); assay: SPR (Carterra); remark: listed apart in the source

Binder | Kd (SARS-CoV-2 S1 (Acro) [1]) | Kd (SARS-CoV-2 S1 (Acro) [2])
15-3 (Fc fusion, also called Antibody 15-3; Antibody 15 parent) EVQLVESGGGLVQPGGSLRLSCAASGFTFSPSWMGWFRQAPGKEREFVATINEYGGRNYADSVKGRFTISADNSKNTAYLQMNSLKPEDTAVYYCARVDRDFDYWGQGTLVTVSS | 31.5 nM | 
3-31 (Fc fusion, also called Antibody 3-31) EVQLVESGGGLVQPGGSLRLSCAASGSTFSINAMGWFRQAPGKEREFVAGITSSGGYTNYADSVKGRFTISADNSKNTAYLQMNSLKPEDTAVYYCAADGVPEYSDYASGPVWGQGTLVTVSS | 21 nM | 21 nM
